In patent publication US20240309070A1 (ADMARE THERAPEUTICS SOCIETY, published 2024):
Where two headings read alike, the source gives them in different places.

B1: A048-H3L2 (antibody, V domains shown)
VH: EVQLLESGGGLVQPGGSLRLSCAASGFSFSSSYYMCWVRQAPGKGLEWIACIYTSSGSAYYADSVKGRFTISRDNSKNTLYLQMNSLRAEDTAVYYCVRNAVGSSYYLYLWGQGTLVTVSS
VL: AQVLTQSPSTLSASVGDRVTITCQASQSVAGNNYLSWYQQKPGKAPKLLIYSVSTLASGVPSRFSGSGSGTEFTLTISSLQPDDFATYYCQGYYNDGIWAFGQGTKVEIK
B2: A048-H1L1 (antibody, V domains shown)
VH: EVQLLESGGGLVQPGGSLRLSCAASGFSFSSSYYMCWVRQAPGKGLEWIACIYTSSGSAYYANWAKGRFTISRDNSKNTLYLQMNSLRAEDTAVYYCVRNAVGSSYYLYLWGQGTLVTVSS
VL: DIQMTQSPSTLSASVGDRVTITCQASQSVAGNNYLSWYQQKPGKAPKLLIYSVSTLASGVPSRFSGSGSGTEFTLTISSLQPDDFATYYCQGYYNDGIWAFGQGTKVEIK
B3: A048-H5L5 (antibody, V domains shown)
VH: QVTLKESGPVLVKPTETLTLTCTASGFSFSSSYYMCWVRQPPGKALEWIACIYTSSGSAYYANWAKGRFTISRDTSKSQVVLTMTNMDPVDTATYFCVRNAVGSSYYLYLWGQGTLVTVSS
VL: EQVLTQSPATLSLSPGERATLSCQASQSVAGNNYLSWYQQKPGQAPRLLIYSVSTLASGIPARFSGSGSGTDFTLTISSLEPEDFAVYYCQGYYNDGIWAFGQGTKLEIK

Columns and labels:
[1] = target: T1, VV B5 monomer protein (Wyeth Vaccinia strain B5 with C-terminal AVI tag and HIS6 tag) (Vaccinia virus, Wyeth strain, UniProt O57254 18-279); test: BLI (Octet), antibody on AHC sensor, B5 monomer analyte
T1 construct: also called B5 protein; VV B5 protein

[2] = target: T1, VV B5 monomer protein (Wyeth Vaccinia …); test: as above; remark: listed apart in the source
[3] = target: T1, VV B5 monomer protein (Wyeth Vaccinia …); test: ELISA, B5 monomer coated
[4] = target: T2, Western Reserve B5 on cells infected with VVddeGFP Western Reserve virus (Vaccinia virus, Western Reserve strain, UniProt Q01227 18-317); test: flow cytometry, HT29 cells infected with WR VV
T2 construct: also called VV B5; WR

[5] = target: T2, Western Reserve B5 on cells infected …; test: flow cytometry, SKOV3 cells infected with WR VV
[6] = target: T3, Copenhagen B5 on cells infected with VVCopenhagen (YFP) virus (Vaccinia virus, Copenhagen strain, UniProt P21115 18-317); test: flow cytometry, HT29 cells infected with Copenhagen VV
T3 construct: also called VV B5

Row | Binder | Kd [1] | Kd [2] | koff [2] | kon [2] | EC50 [3] | EC50 [4] | EC50 [5] | EC50 [6]
1 | B1 | 3 nM | 3.83 nM | 0.000397 s⁻¹ | 103000 M⁻¹ s⁻¹ | 0.0835 nM | 1.32 nM | 0.67 nM | 1.87 nM
2 | B2 |  | 9.96 nM | 0.000763 s⁻¹ | 76600 M⁻¹ s⁻¹ | 0.0862 nM | 0.97 nM | 1.03 nM | 2.37 nM
3 | B3 |  | 8.55 nM | 0.000521 s⁻¹ | 60800 M⁻¹ s⁻¹ | 0.104 nM | 2.28 nM | 1.36 nM | 2.39 nM
